The record followed here is the RNAGym collection of RNA variant scans (doi:10.1073/pnas.2313332121).

Fewer inactive variants are shown than the library holds.

First the molecules themselves.
B1: TPR 5TU (parent)
chain: GGAUCUUCUCGAUCUAACAAAAAAGACAAAUCUGCCACAAAGCUUGAGAGCAUCUUCGGAUGCAGAGGCGGCAGCCUUCGGUGGCGCGAUAGCGCCAACGUUCUCAACUAUGACACGCAAAACGCGUGCUCCGUUGAAUGGAGUUUAUCAUG

The data set covers variants of B1. Briefly: polymerase ribozyme fitness, log enrichment relative to wild type (log ratio); higher = more active; in vitro selection for triplet polymerase activity. Put shortly: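 Frozen incubation at −7 °C formed the core of a single, triplicate in vitro selection round applied to PCR-built, transcribed mutant libraries of each subunit of a heterodimeric triplet polymerase ribozyme. Extended constructs were gel-excised, captured with streptavidin beads and amplified by RT-PCR, and input and output libraries were Illumina-sequenced with a filter of ≥10 input reads and ≥1 read per output. Fitness is the logarithm of genotype enrichment relative to wild-type enrichment, with inverse-variance-weighted replicate averaging, and the logarithm is base 2.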
Regarding C38G U55G C76A G141A, the “polymerase ribozyme fitness (log ratio)” value is ≤ -4.2.

With A37G A47G G92C, the “polymerase ribozyme fitness (log ratio)” value was -3.05.

A37G G92U: the “polymerase ribozyme fitness (log ratio)” value is -2.01.

Take C38U A97G: the “polymerase ribozyme fitness (log ratio)” value is -0.0867.

For A37C A41C U56A G67C C85A G126A C131A G141A, the “polymerase ribozyme fitness (log ratio)” value was ≤ -4.2.

For A37U G81U C85U A137C, the “polymerase ribozyme fitness (log ratio)” value was ≤ -4.2.

C38G G92A: the “polymerase ribozyme fitness (log ratio)” value is -4.14.

Consider C38G C87U C125U G141A, for which the “polymerase ribozyme fitness (log ratio)” value was -3.12.

For the variant C38A C57U A113U, the “polymerase ribozyme fitness (log ratio)” value was -1.65.

On to C35U C93U, for which the “polymerase ribozyme fitness (log ratio)” value was -1.74.

Turning to C38U C43U A73U C79A U90C U148G, the “polymerase ribozyme fitness (log ratio)” value was ≤ -4.2.

C35U C54A U55A G80C C108U U127A: the “polymerase ribozyme fitness (log ratio)” value is ≤ -4.2.

For A37G U56G G58C G59A C93G C99G C108U, the “polymerase ribozyme fitness (log ratio)” value was ≤ -4.2.

Take C35U C76U C96A C125G A142G: the “polymerase ribozyme fitness (log ratio)” value was -2.86.

As to C36A U55A G92A C96G G126C U144C, the “polymerase ribozyme fitness (log ratio)” value was ≤ -4.2.

As to C35U U77C G88A G124U, the “polymerase ribozyme fitness (log ratio)” value is ≤ -4.2.

In the case of A37G G58U A89G, the “polymerase ribozyme fitness (log ratio)” value is -2.84.

Turning to A37G A66U, the “polymerase ribozyme fitness (log ratio)” value was ≤ -4.2.

As for C36U A49U C79A A106U A147C, the “polymerase ribozyme fitness (log ratio)” value is ≤ -4.2.

In the case of A37U C85G G86A G92C A115G, the “polymerase ribozyme fitness (log ratio)” value is -3.98.

As for A37C A40G G50U G86A A97U, the “polymerase ribozyme fitness (log ratio)” value is ≤ -4.2.

As for C38A C93A C131G A150U, the “polymerase ribozyme fitness (log ratio)” value is ≤ -4.2.

As for C36U A106G C114G, the “polymerase ribozyme fitness (log ratio)” value was -3.87.

Turning to C38A G92C C93A C125G, the “polymerase ribozyme fitness (log ratio)” value is ≤ -4.2.

Regarding A37C A41U G50C G81U C95U U111A C118G U127C A142C, the “polymerase ribozyme fitness (log ratio)” value was ≤ -4.2.

For the variant C38U A73U A107C C108U A115G, the “polymerase ribozyme fitness (log ratio)” value was ≤ -4.2.

For C35U G50A U53A U56A C85A C93A C95U, the “polymerase ribozyme fitness (log ratio)” value was ≤ -4.2.

For the variant C38G U53A G80A, the “polymerase ribozyme fitness (log ratio)” value was -2.37.

On to C35U A49C G94C A98G C118U, for which the “polymerase ribozyme fitness (log ratio)” value was ≤ -4.2.

C36A G94A A121C: the “polymerase ribozyme fitness (log ratio)” value was -4.03.

Regarding C36A U55A C57G C76A, the “polymerase ribozyme fitness (log ratio)” value was -4.03.

With A37G U55A C85U C96U A107C C125A U144A A147U, the “polymerase ribozyme fitness (log ratio)” value was ≤ -4.2.

On to C36A C95U U104A C118G, for which the “polymerase ribozyme fitness (log ratio)” value was ≤ -4.2.

As for C38U A49G G92U C103U G124U, the “polymerase ribozyme fitness (log ratio)” value was -1.7.

As to C35U A60G G83A A150G, the “polymerase ribozyme fitness (log ratio)” value was -2.56.

As for A37U A66U C76A U102A G141C, the “polymerase ribozyme fitness (log ratio)” value was ≤ -4.2.

Consider C38G U53A C85U U135A, for which the “polymerase ribozyme fitness (log ratio)” value is -1.98.

As to C38U C85U U127A, the “polymerase ribozyme fitness (log ratio)” value is -3.87.

As to C36A U55A, the “polymerase ribozyme fitness (log ratio)” value is -3.27.

On to C38A G80U C125U, for which the “polymerase ribozyme fitness (log ratio)” value is -2.34.

Consider C35U C95U, for which the “polymerase ribozyme fitness (log ratio)” value was -1.1.

On to A37U A98U, for which the “polymerase ribozyme fitness (log ratio)” value was -0.971.

For C35U A41U C54U C76G C85A A98G, the “polymerase ribozyme fitness (log ratio)” value was ≤ -4.2.

C38U C54U G58C C85U C105G U144C: the “polymerase ribozyme fitness (log ratio)” value was -2.92.

For the variant C36A G50A A64U A66C A98U U104A U109G U148G, the “polymerase ribozyme fitness (log ratio)” value was ≤ -4.2.

With C36U A60G C75G G92C, the “polymerase ribozyme fitness (log ratio)” value was ≤ -4.2.

Consider A37U C95U A122G, for which the “polymerase ribozyme fitness (log ratio)” value was -1.77.

C35U A107U: the “polymerase ribozyme fitness (log ratio)” value was -4.03.

Regarding A37U G48C, the “polymerase ribozyme fitness (log ratio)” value is -2.02.

A37G C57G C69A C85U A120U: the “polymerase ribozyme fitness (log ratio)” value is -3.21.

As for C38A A64C G88C, the “polymerase ribozyme fitness (log ratio)” value was ≤ -4.2.

As for C36U C76U G124U, the “polymerase ribozyme fitness (log ratio)” value is -1.95.

A37G G59C A147C: the “polymerase ribozyme fitness (log ratio)” value is -2.8.

For C35U G59A, the “polymerase ribozyme fitness (log ratio)” value came out at 0.0486.

C35U A52G U56A U109G A119U: the “polymerase ribozyme fitness (log ratio)” value was -3.89.

As to C36U G50C U53A G59C U78A, the “polymerase ribozyme fitness (log ratio)” value was ≤ -4.2.

On to C36U U53A U78A G83A U90C, for which the “polymerase ribozyme fitness (log ratio)” value was ≤ -4.2.

C35U G83A C116A: the “polymerase ribozyme fitness (log ratio)” value is -1.03.

As to C36U U56A C85G C105A C116A, the “polymerase ribozyme fitness (log ratio)” value was ≤ -4.2.

For C38G C69A C85A C96A A97C, the “polymerase ribozyme fitness (log ratio)” value was -3.84.

Regarding A37G G84U, the “polymerase ribozyme fitness (log ratio)” value is -3.14.

Regarding A37U A47G U53A G92C A106U A137G G141U, the “polymerase ribozyme fitness (log ratio)” value was ≤ -4.2.

As for C38G C96G, the “polymerase ribozyme fitness (log ratio)” value is -0.167.

As for C38G C54G C79U G117A, the “polymerase ribozyme fitness (log ratio)” value is ≤ -4.2.

For the variant C35U U55G A60C A91U A119G A121U C149G, the “polymerase ribozyme fitness (log ratio)” value was ≤ -4.2.

Take A37G G141U U145G: the “polymerase ribozyme fitness (log ratio)” value was -3.34.

With C35U A52C U90A C95U A122C, the “polymerase ribozyme fitness (log ratio)” value was ≤ -4.2.

For C35U G65A G80U C95G G141C, the “polymerase ribozyme fitness (log ratio)” value was -3.95.

As to A37U C75A G84A C114U, the “polymerase ribozyme fitness (log ratio)” value is ≤ -4.2.

Turning to C38U A89C C93U G124C, the “polymerase ribozyme fitness (log ratio)” value is -2.94.

As for C36A C57U C63A G86A A147G, the “polymerase ribozyme fitness (log ratio)” value was ≤ -4.2.

Regarding A37U G84A C118U A122U, the “polymerase ribozyme fitness (log ratio)” value was -1.57.

As to C36U A52C U55G G58C C125A C131G, the “polymerase ribozyme fitness (log ratio)” value is ≤ -4.2.

For A37C C75U U77G A89C C93A A121C U148G U151G, the “polymerase ribozyme fitness (log ratio)” value is ≤ -4.2.

For A37U C96U, the “polymerase ribozyme fitness (log ratio)” value was -1.52.

Consider A37U U53A G68A A98U, for which the “polymerase ribozyme fitness (log ratio)” value is ≤ -4.2.

Regarding C38A U53A C95G A97G C116U, the “polymerase ribozyme fitness (log ratio)” value was -2.22.

As for C36U C54G U55C C75U C93U U146A, the “polymerase ribozyme fitness (log ratio)” value was ≤ -4.2.

On to C38G A47C, for which the “polymerase ribozyme fitness (log ratio)” value is -0.652.

Turning to C36A G58A G67U G81C C103G A113U U134G G141U, the “polymerase ribozyme fitness (log ratio)” value was ≤ -4.2.

With A37U A89C U148A, the “polymerase ribozyme fitness (log ratio)” value was ≤ -4.2.

On to C35U G81C C85G, for which the “polymerase ribozyme fitness (log ratio)” value is -1.5.

On to C38A C63A U90A G124U, for which the “polymerase ribozyme fitness (log ratio)” value is ≤ -4.2.

As for A37G C85G, the “polymerase ribozyme fitness (log ratio)” value is -3.97.
